Data on one substance can be found in article PMC7677926.

The test concerns the target L-ferritin-M6A (mouse L-ferritin with the Mms6 iron-binding segment M6A at its C-terminus behind a glycine spacer), with the N-terminal 6-His tag (mouse | Magnetospirillum magneticum AMB-1) (UniProt Q2W8R5). Briefly: SEC; HiLoad 26/60 Superdex 200; 20 mM Bis-Tris pH 5.8, 500 mM KCl, 10% glycerol; oligomer judged by elution volume. A general note: SEC sorts molecules by how far they enter the pores of the column.

“L-ferritin-M6A (mouse L-ferritin with the Mms6 iron-binding segment M6A at its C-terminus behind a glycine spacer), with the N-terminal 6-His tag (from UniProt Q2W8R5 116-127)”: the stoichiometry N – broadly, a count of units in the complex or per binding partner – came out at 24.
